The values that follow come from patent US9084745B2, “Modulation of the Vps10p-domain for the treatment of cardiovascular disease” (H. Lundback A/S, priority 2008, dated 2015).

The assay deals with T1, recombinant human sortilin (Homo sapiens, UniProt Q99523).
T1 sequence (Q99523 78-755 limits assumed): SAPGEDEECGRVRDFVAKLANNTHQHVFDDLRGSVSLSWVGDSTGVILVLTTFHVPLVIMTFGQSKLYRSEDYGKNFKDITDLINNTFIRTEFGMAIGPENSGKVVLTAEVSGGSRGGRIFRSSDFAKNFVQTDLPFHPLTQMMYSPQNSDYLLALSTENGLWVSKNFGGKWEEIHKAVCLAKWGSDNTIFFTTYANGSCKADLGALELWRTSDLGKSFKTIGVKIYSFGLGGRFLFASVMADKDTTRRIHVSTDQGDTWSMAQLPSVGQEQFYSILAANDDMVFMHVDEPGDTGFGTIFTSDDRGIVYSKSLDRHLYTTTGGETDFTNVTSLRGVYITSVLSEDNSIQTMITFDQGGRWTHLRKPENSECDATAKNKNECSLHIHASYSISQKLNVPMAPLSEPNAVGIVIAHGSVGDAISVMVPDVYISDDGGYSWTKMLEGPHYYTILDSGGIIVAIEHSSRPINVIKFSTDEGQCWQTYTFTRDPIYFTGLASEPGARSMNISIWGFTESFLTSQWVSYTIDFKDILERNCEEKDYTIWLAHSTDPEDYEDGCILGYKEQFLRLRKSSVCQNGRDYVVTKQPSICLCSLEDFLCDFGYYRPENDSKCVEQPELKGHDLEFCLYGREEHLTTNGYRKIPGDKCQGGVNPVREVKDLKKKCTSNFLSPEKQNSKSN
The assay can be described thus: Surface plasmon resonance analysis of ApoB binding to immobilized sortilin. As to conditions: ApoB 10, 20, 50 nM, on and off rates recorded, displayed experiment. On the procedure: FIG. 5b: Characterization of ApoB binding to recombinant human sortilin (30). Sortilin was immobilized on a BIAcore CM5 sensorchip at a density of […]. A) After baseline calibration in running buffer (10 mM Hepes, 150 mM NaCl, 1 mM EGTA, 1.5 mM CaCl2, 0.005% P20, pH 7.4) 10 μg/ml rabbit anti-sortilin IgG (12) or running buffer alone was applied to the chip. At t=700 sec the response units obtained in the presence of anti-sortilin IgG was arbitrarily set at 100 and 50 nM ApoB was applied to the flow cell pre-incubated with antibody or with buffer alone. Association of ApoB binding was measured until 1200 sec, after which the solute was changed to buffer to allow dissociation. […]
Determination of direct binding of ligand to immobilized protein can be performed by e.g. surface plasmon resonance analysis (Biacore, Sweden) using CaHBS as standard running buffer (10 mM HEPES, pH 7.4, 140 mM NaCl, 2 mM CaCl2, 1 mM EGTA, and 0.005% Tween-20). […] In another approach, inhibition of an established ligand can be monitored in the absence or presence of putative inhibitors. […] The data collected are analysed by fitting of sensorgrams for affinity estimations and inhibitory potential using the Biaevaluation version 3.1 program. We evaluated the binding properties of ApoB to sortilin (FIG. 5b). […]

Turning to “ApoB: apolipoprotein B, the part of LDL that binds to the LDL receptor; tested as sortilin ligand”, the Kd was found to be 0.4 nM.

The term Kd denotes the constant that tells how readily two partners part at equilibrium.
